In patent US20220411504A1 (Janssen / Centocor, published 2022):
Read-outs that look alike come from different tables or passages of the source.

T1: DLL3 on tumor cells (SHP-77, HCC1833, G361) (human, UniProt Q9NYJ7 27-618)
T1 sequence: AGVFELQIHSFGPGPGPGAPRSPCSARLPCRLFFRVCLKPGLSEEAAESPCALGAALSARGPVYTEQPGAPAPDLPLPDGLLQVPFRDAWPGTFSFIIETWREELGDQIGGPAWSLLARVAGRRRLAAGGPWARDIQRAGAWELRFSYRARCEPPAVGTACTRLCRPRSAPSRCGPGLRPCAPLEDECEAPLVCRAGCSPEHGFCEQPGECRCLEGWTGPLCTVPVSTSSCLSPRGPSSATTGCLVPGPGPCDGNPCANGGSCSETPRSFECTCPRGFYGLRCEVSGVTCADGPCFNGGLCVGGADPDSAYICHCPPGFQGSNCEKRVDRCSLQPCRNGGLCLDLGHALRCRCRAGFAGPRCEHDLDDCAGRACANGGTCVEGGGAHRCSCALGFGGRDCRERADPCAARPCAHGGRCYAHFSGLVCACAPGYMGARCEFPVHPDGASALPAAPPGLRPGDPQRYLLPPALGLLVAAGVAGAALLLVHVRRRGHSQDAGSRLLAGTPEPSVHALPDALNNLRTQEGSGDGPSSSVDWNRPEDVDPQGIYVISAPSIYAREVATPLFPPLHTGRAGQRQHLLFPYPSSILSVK

T2: recombinant human DLL3 (human, UniProt Q9NYJ7 27-492)
T2 construct: also called DLL3 antigen; Delta-like protein 3
T2 sequence: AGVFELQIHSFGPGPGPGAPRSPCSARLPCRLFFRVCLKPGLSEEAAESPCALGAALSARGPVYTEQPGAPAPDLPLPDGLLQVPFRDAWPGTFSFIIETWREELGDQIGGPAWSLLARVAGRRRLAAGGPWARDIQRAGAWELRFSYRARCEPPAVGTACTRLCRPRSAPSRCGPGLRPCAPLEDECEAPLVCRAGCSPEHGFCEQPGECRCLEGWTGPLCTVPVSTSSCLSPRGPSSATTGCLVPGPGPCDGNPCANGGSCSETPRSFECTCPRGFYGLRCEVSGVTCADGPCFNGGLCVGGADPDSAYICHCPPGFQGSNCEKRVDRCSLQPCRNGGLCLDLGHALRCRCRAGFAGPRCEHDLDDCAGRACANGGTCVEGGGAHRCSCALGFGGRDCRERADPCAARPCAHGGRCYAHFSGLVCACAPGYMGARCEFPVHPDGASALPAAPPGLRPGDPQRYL


How the values were obtained:
[1] = target: T3, Human CD3 epsilon (CD3ε) of the T cell receptor complex on cells (human, UniProt P07766 23-207); experiment: T cell binding (method not described)
T3 construct: On Jurkat cells and primary human (pan) T cells; also called T-cell surface glycoprotein CD3 epsilon chain; T3E

[2] = target: T4, HLA-G on cells (K562-HLA-G and HLA-G expressing tumor cells) (human); experiment: K562-HLA-G cell binding (method not described)
T4 construct: whole, on cells; also called HLA-G1

[3] = target: T4, HLA-G on cells (K562-HLA-G and HLA-G …); experiment: cell-based or functional assay
[4] = target: T1, DLL3 on tumor cells (SHP-77, HCC1833, …); experiment: cell-based or functional assay
[5] = target: T3, Human CD3 epsilon (CD3ε) of the T cell …; experiment: flow cytometry on human pan T cells
[6] = target: T2, recombinant human DLL3; experiment: SPR (Biacore T200), antibody captured by goat anti-Fc, DLL3 titrated
[7] = target: T2, recombinant human DLL3; experiment: as above; remark: listed apart in the source

T3 sequence (P07766 23-207 limits assumed, one chain of several): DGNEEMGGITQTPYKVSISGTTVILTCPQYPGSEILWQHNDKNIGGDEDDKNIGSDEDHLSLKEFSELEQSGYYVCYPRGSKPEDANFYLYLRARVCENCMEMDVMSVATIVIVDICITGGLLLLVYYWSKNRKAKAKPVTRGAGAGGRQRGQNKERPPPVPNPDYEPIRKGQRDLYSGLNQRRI

Binder	EC50 [1] [nM]	EC50 [2] [nM]	binding result [5]	Kd [6] [nM]	Kd [7] [nM]	Cytotoxicity, EC50 (T cell-mediated, NCI-H2009-b2m target cells, 72 hr) [3] [nM]	Cytotoxicity, % lysis of SHP-77 cells (whole PBMCs, 1:1 ET, 30 nM) [4] [%]
HC3B125 (bispecific antibody, human IgG1, lambda, L234A L235A, No codon for C-terminal K447; also called CD3B376-Fab-Fc x MHGB732-LH-scFv-Fc; HCB125) heavy: QVQLQQSGPRLVRPSQTLSLTCAISGDSVFNNNAAWSWIRQSPSRGLEWLGRTYYRSKWLYDYAVSVKSRITVNPDTSRNQFTLQLNSVTPEDTALYYCARGYSSSFDYWGQGTLVTVSSASTKGPSVFPLAPSSKSTSGGTAALGCLVKDYFPEPVTVSWNSGALTSGVHTFPAVLQSSGLYSLSSVVTVPSSSLGTQTYICNVNHKPSNTKVDKKVEPKSCDKTHTCPPCPAPEAAGGPSVFLFPPKPKDTLMISRTPEVTCVVVSVSHEDPEVKFNWYVDGVEVHNAKTKPREEQYNSTYRVVSVLTVLHQDWLNGKEYKCKVSNKALPAPIEKTISKAKGQPREPQVYVYPPSREEMTKNQVSLTCLVKGFYPSDIAVEWESNGQPENNYKTTPPVLDSDGSFALVSKLTVDKSRWQQGNVFSCSVMHEALHNHYTQKSLSLSPG light: QSALTQPASVSGSPGQSITISCTGTSSNIGTYKFVSWYQQHPDKAPKVLLYEVSKRPSGVSSRFSGSKSGNTASLTISGLQAEDQADYHCVSYAGSGTLLFGGGTKLTVLGQPKAAPSVTLFPPSSEELQANKATLVCLISDFYPGAVTVAWKADSSPVKAGVETTTPSKQSNNKYAASSYLSLTPEQWKSHRSYSCQVTHEGSTVEKTVAPTECS scFv: DIVMTQSPDSLAVSLGERATINCKSSQSVLHSSNNKNYLTWFQQKPGQPPKLLIYWASTRESGVPDRFSGSGSGTDFTLTISSLQAEDVAVYYCHQYYSTPPTFGQGTKVEIKGGSEGKSSGSGSESKSTGGSQVQLQQSGPGLVKPSQTLSLTCAISGDSVSSNSAAWNWIRQSPSRGLEWLGRTYYRSKWYNDYAVSVKSRITINPDTSKNQISLQLNSVTPEDTAVYYCAGDRRYGIVGLPFAYWGQGTLVTVSSEPKSSDKTHTCPPCPAPEAAGGPSVFLFPPKPKDTLMISRTPEVTCVVVSVSHEDPEVKFNWYVDGVEVHNAKTKPREEQYNSTYRVVSVLTVLHQDWLNGKEYKCKVSNKALPAPIEKTISKAKGQPREPQVYVLPPSREEMTKNQVSLLCLVKGFYPSDIAVEWESNGQPENNYLTWPPVLDSDGSFFLYSKLTVDKSRWQQGNVFSCSVMHEALHNHYTQKSLSLSPG	60	12	–	–	–	0.0565	–
DL3B585 (bispecific antibody, human IgG1, lambda, L234A L235A, also called CD3B376-Fab; DL3B279-LH-scFv) scFv: DIQMTQSPSSLSASVGDRVTITCRASQGISNYLAWFQQKPGKAPKSLIYAASSLQSGVPSKFSGSGSGTDFTLTISSLQPEDFATYYCQQYNSYPYTFAQGTKLEIKGGSEGKSSGSGSESKSTGGSQVQLVQSGAEVKKPGASVKVSCKASGNTFTNYYIHWVRQAPGQGLEWMGIINPSGGSTSYAQKLQGRMTMTRDTSTSTVYMELSSLRSEDTAVYFCARQGPFIGDAFDIWGQGTMVTVSSEPKSSDKTHTCPPCPAPEAAGGPSVFLFPPKPKDTLMISRTPEVTCVVVSVSHEDPEVKFNWYVDGVEVHNAKTKPREEQYNSTYRVVSVLTVLHQDWLNGKEYKCKVSNKALPAPIEKTISKAKGQPREPQVYVLPPSREEMTKNQVSLLCLVKGFYPSDIAVEWESNGQPENNYLTWPPVLDSDGSFFLYSKLTVDKSRWQQGNVFSCSVMHEALHNHYTQKSLSLS heavy: QVQLQQSGPRLVRPSQTLSLTCAISGDSVFNNNAAWSWIRQSPSRGLEWLGRTYYRSKWLYDYAVSVKSRITVNPDTSRNQFTLQLNSVTPEDTALYYCARGYSSSFDYWGQGTLVTVSSASTKGPSVFPLAPSSKSTSGGTAALGCLVKDYFPEPVTVSWNSGALTSGVHTFPAVLQSSGLYSLSSVVTVPSSSLGTQTYICNVNHKPSNTKVDKKVEPKSCDKTHTCPPCPAPEAAGGPSVFLFPPKPKDTLMISRTPEVTCVVVSVSHEDPEVKFNWYVDGVEVHNAKTKPREEQYNSTYRVVSVLTVLHQDWLNGKEYKCKVSNKALPAPIEKTISKAKGQPREPQVYVYPPSREEMTKNQVSLTCLVKGFYPSDIAVEWESNGQPENNYKTTPPVLDSDGSFALVSKLTVDKSRWQQGNVFSCSVMHEALHNHYTQKSLSLSPG light: QSALTQPASVSGSPGQSITISCTGTSSNIGTYKFVSWYQQHPDKAPKVLLYEVSKRPSGVSSRFSGSKSGNTASLTISGLQAEDQADYHCVSYAGSGTLLFGGGTKLTVLGQPKAAPSVTLFPPSSEELQANKATLVCLISDFYPGAVTVAWKADSSPVKAGVETTTPSKQSNNKYAASSYLSLTPEQWKSHRSYSCQVTHEGSTVEKTVAPTECS	–	–	binds	0.024	0.024	–	58.1

Now from value to binder, other results behind:

EC50 [1] [nM]	EC50 [2] [nM]	binding result [5]	Kd [6] [nM]	Kd [7] [nM]	Binder	Cytotoxicity, EC50 (T cell-mediated, NCI-H2009-b2m target cells, 72 hr) [3] [nM]	Cytotoxicity, % lysis of SHP-77 cells (whole PBMCs, 1:1 ET, 30 nM) [4] [%]
–	–	binds	–	0.033	D3C3B80 (bispecific antibody, human IgG1, lambda, L234A L235A, also called C3C3B80) scFv: DIQMTQSPSSLSASVGDRVTITCRASQGISNYLAWFQQKPGKAPKSLIYAASSLQSGVPSKFSGSGSGTDFTLTISSLQPEDFATYYCQQYNSYPYTFGQGTKLEIKGGSEGKSSGSGSESKSTGGSQVQLVQSGAEVKKPGASVKVSCKASGQTFTNYYIHWVRQAPGQGLEWMGIINPSGGSTSYAQKLQGRMTMTRDTSTSTVYMELSSLRSEDTAVYFCARQGPFIGDAFDIWGQGTTVTVSSEPKSSDKTHTCPPCPAPEAAGGPSVFLFPPKPKDTLMISRTPEVTCVVVSVSHEDPEVKFNWYVDGVEVHNAKTKPREEQYNSTYRVVSVLTVLHQDWLNGKEYKCKVSNKALPAPIEKTISKAKGQPREPQVYVLPPSREEMTKNQVSLLCLVKGFYPSDIAVEWESNGQPENNYLTWPPVLDSDGSFFLYSKLTVDKSRWQQGNVFSCSVMHEALHNHYTQKSLSLSPGK heavy: QVQLQQSGPRLVRPSQTLSLTCAISGDSVFNNNAAWSWIRQSPSRGLEWLGRTYYRSKWLYDYAVSVKSRITVNPDTSRNQFTLQLNSVTPEDTALYYCARGYSSSFDYWGQGTLVTVSSASTKGPSVFPLAPSSKSTSGGTAALGCLVKDYFPEPVTVSWNSGALTSGVHTFPAVLQSSGLYSLSSVVTVPSSSLGTQTYICNVNHKPSNTKVDKKVEPKSCDKTHTCPPCPAPEAAGGPSVFLFPPKPKDTLMISRTPEVTCVVVSVSHEDPEVKFNWYVDGVEVHNAKTKPREEQYNSTYRVVSVLTVLHQDWLNGKEYKCKVSNKALPAPIEKTISKAKGQPREPQVYVYPPSREEMTKNQVSLTCLVKGFYPSDIAVEWESNGQPENNYKTTPPVLDSDGSFALVSKLTVDKSRWQQGNVFSCSVMHEALHNHYTQKSLSLSPGK light: QSALTQPASVSGSPGQSITISCTGTSSNIGTYKFVSWYQQHPDKAPKVLLYEVSKRPSGVSSRFSGSKSGNTASLTISGLQAEDQADYHCVSYAGSGTLLFGGGTKLTVLGQPKAAPSVTLFPPSSEELQANKATLVCLISDFYPGAVTVAWKADSSPVKAGVETTTPSKQSNNKYAASSYLSLTPEQWKSHRSYSCQVTHEGSTVEKTVAPTECS	–	–
60	11	–	–	–	HC3B258 (bispecific antibody, human IgG1, lambda, L234A L235A, Differs from HC3B125 only by a codon for the C-terminal lysine K447, which is processed; also called CD3B376-Fab-Fc x MHGB732-LH-scFv-Fc (with K447 codon)) heavy: QVQLQQSGPRLVRPSQTLSLTCAISGDSVFNNNAAWSWIRQSPSRGLEWLGRTYYRSKWLYDYAVSVKSRITVNPDTSRNQFTLQLNSVTPEDTALYYCARGYSSSFDYWGQGTLVTVSSASTKGPSVFPLAPSSKSTSGGTAALGCLVKDYFPEPVTVSWNSGALTSGVHTFPAVLQSSGLYSLSSVVTVPSSSLGTQTYICNVNHKPSNTKVDKKVEPKSCDKTHTCPPCPAPEAAGGPSVFLFPPKPKDTLMISRTPEVTCVVVSVSHEDPEVKFNWYVDGVEVHNAKTKPREEQYNSTYRVVSVLTVLHQDWLNGKEYKCKVSNKALPAPIEKTISKAKGQPREPQVYVYPPSREEMTKNQVSLTCLVKGFYPSDIAVEWESNGQPENNYKTTPPVLDSDGSFALVSKLTVDKSRWQQGNVFSCSVMHEALHNHYTQKSLSLSPG light: QSALTQPASVSGSPGQSITISCTGTSSNIGTYKFVSWYQQHPDKAPKVLLYEVSKRPSGVSSRFSGSKSGNTASLTISGLQAEDQADYHCVSYAGSGTLLFGGGTKLTVLGQPKAAPSVTLFPPSSEELQANKATLVCLISDFYPGAVTVAWKADSSPVKAGVETTTPSKQSNNKYAASSYLSLTPEQWKSHRSYSCQVTHEGSTVEKTVAPTECS scFv: DIVMTQSPDSLAVSLGERATINCKSSQSVLHSSNNKNYLTWFQQKPGQPPKLLIYWASTRESGVPDRFSGSGSGTDFTLTISSLQAEDVAVYYCHQYYSTPPTFGQGTKVEIKGGSEGKSSGSGSESKSTGGSQVQLQQSGPGLVKPSQTLSLTCAISGDSVSSNSAAWNWIRQSPSRGLEWLGRTYYRSKWYNDYAVSVKSRITINPDTSKNQISLQLNSVTPEDTAVYYCAGDRRYGIVGLPFAYWGQGTLVTVSSEPKSSDKTHTCPPCPAPEAAGGPSVFLFPPKPKDTLMISRTPEVTCVVVSVSHEDPEVKFNWYVDGVEVHNAKTKPREEQYNSTYRVVSVLTVLHQDWLNGKEYKCKVSNKALPAPIEKTISKAKGQPREPQVYVLPPSREEMTKNQVSLLCLVKGFYPSDIAVEWESNGQPENNYLTWPPVLDSDGSFFLYSKLTVDKSRWQQGNVFSCSVMHEALHNHYTQKSLSLSPG	–	–
